Experimental data reported in patent US10577406B2, “FKBP-L polypeptides and uses in angiogenesis-mediated disorders” (ALMAC DISCOVERY LIMITED, priority 2006, dated 2020).

Tested on: HMEC-1
Test: in vitro migration assay (wound closure / wound scrape), recombinant protein or peptides added to medium
Assay type: cell-based, Human
Procedure: (§1) The in vitro migration assay used in these studies is a modified version of the method described by Ashton et al (1999). HMEC-1 were plated into individual chambers on a glass slide and grown to 90% confluence overnight. The medium was removed and the monolayer wounded. The monolayer was re-supplemented with fresh medium and the required volume of recombinant full length his-tagged FKBP-L protein (SEQ ID NO: 1) was added to give the required final concentration.
The monolayers were incubated for 7 hours after exposure to recombinant FKBP-L protein and then fixed in 4% PBS buffered paraformaldehyde. The extent of “wound” closure was blindly assessed microscopically by an independent investigator and quantified using a calibrated eyepiece graticule (1 mm/100 μm graduation) at 20× magnification (Olympus BX 50). The extent of closure in the FKBP-L treated slides was compared to time matched sham treated controls and the % inhibition of wound closure compared to time matched controls calculated.
The following studies were performed to determine the effect of a full length His-tagged recombinant FKBP-L protein on the wound closure assay measured as a function of time. Again, the in vitro migration assay used in these studies is a modified version of the method described by Ashton et al (1999). HMEC-1 were plated into individual chambers on a glass slide and grown to 90% confluence overnight. The medium was removed and the monolayer wounded. The monolayer was re-supplemented with fresh medium and the required volume of full length his-tagged recombinant FKBP-L (i.e., SEQ ID NO: 1) added to give the required final concentration 750 ngml^−1.
Slides were removed at fixed time points until complete closure of the wound, then fixed in 4% PBS buffered paraformaldehyde. The extent of “wound” closure was blindly assessed microscopically by an independent investigator and quantified using a calibrated eyepiece graticule (1 mm/100 μm graduation) at 20× magnification (Olympus BX 50). The extent of closure in the FKBP-L treated slides was compared to time matched sham treated controls and the % inhibition of wound closure compared to time matched controls calculated.
as §1, with “al. (1999) see supra.” for “al (1999).”, “the following peptides” for “recombinant full length his-tagged FKBP-L protein (SEQ ID NO: 1)”, “achieve a dose range from 10^−14-10^−6 M.” for “give the required final concentration.”
The monolayers were incubated for 7 h and then fixed in 4% PBS buffered paraformaldehyde. The extent of “wound” closure was blindly assessed microscopically by an independent investigator and quantified using a calibrated eyepiece graticule (1 mm/100 μm graduation) at 20× magnification (Olympus BX 50). The extent of closure in the FKBP-L treated slides was compared to time matched sham treated controls and the % inhibition of wound closure compared to time matched controls calculated.
The in vitro migration assay used in these studies is a modified version of the method described by Ashton et al. (1999) see supra. HMEC-1 were plated into individual chambers on a glass slide and grown to 90% confluence overnight. The medium was removed and the monolayers wounded. The monolayer was re-supplemented with fresh medium and the required volume of each peptide (i.e., peptides 1-17, SEQ ID NOS: 12-28; Table 4 below) was added to give the required final concentration (10^−14-10^−6 M).
The monolayers were incubated for 24 h and then fixed in 4% PBS buffered paraformaldehyde. The extent of “wound” closure was blindly assessed microscopically by an independent investigator and quantified using a calibrated eyepiece graticule (1 mm/100 μm graduation) at 20× magnification (Olympus BX 50). […]

Row | Molecule | potency compared with the full length recombinant protein on a mole/mole basis (wound scrape, 7 h) | delay of 50% wound closure versus control (750 ngml^−1) [h] | time until 50% wound closure (750 ngml^−1, single administration, control 7 hours) [h] | inhibition of HMEC-1 migration into the denuded area of the monolayer compared to time matched controls (750 ngml^−1, 7 hours) [%] | time until which the wound remained open (total wound closure) (750 ngml^−1, control 16 hours) [h] | optimum concentration for inhibition of migration (7 hours) [ngml^−1] | dose effective to prevent cell migration (FIG. 4 dose response)
1 | H-QIRQQPRDPPTETLELEVSPDPAS-OH [FKBP-L 24mer] | increased potency | – | – | – | – | – | –
2 | full length recombinant FKBP-L: recombinant full length his-tagged FKBP-L protein (SEQ ID NO: 1) expressed in BL21 (DE3) (protein, listed as Homo sapiens, His tag) MRGSHHHHHHGMASMTGGQQMGRDLYDDDDKDRWGSMETPPVNTIGEKDTSQPQQEWEKNLRENLDSVIQIRQQPRDPPTETLELEVSPDPASQILEHTQGAEKLVAELEGDSHKSHGSTSQMPEALQASDLWYCPDGSFVKKIVIRGHGLDKPKLGSCCRVLALGFPFGSGPPEGWTELTMGVGPWREETWGELIEKCLESMCQGEEAELQLPGHTGPPVGLTLASFTQGRDSWELETSEKEALAREERARGTELFRAGNPEGAARCYGRALRLLLTLPPPGPPERTVLHANLAACQLLLGQPQLAAQSCDRVLEREPGHLKALYRRGVAQAALGNLEKATADLKKVLAIDPKNRAAQEELGKVVIQGKNQDAGLAQGLRKMFG | – | 9 | 16 | 60 | 34 | 750 | 10^−6 M
